{"source": "paper PMC9500498", "about": "(Circulation research, 2021)", "target": "calmodulin (CaM), recombinant (UniProt P0DP23 1-149)", "assay": "SPR", "note": "Ends that are not written are not given here. * marks the point of attachment. Biotin = O=C1N[C@H]2[C@H](CS[C@H]2CCCCC(=O)*)N1; Ahx = NCCCCCC(=O)O"}
{"binder": "{Biotin-Ahx}-KKRKKAKKDYQPNYFLSIPI", "note": "[biotin-ahx-AKAP18δ-N (79–98)]", "values": [{"measurement": "Kd", "result": "4.7 ± 0.7", "unit": "µM"}, {"measurement": "koff", "result": 0.00053, "unit": "s⁻¹"}, {"measurement": "kon", "result": 130, "unit": "M⁻¹ s⁻¹"}]}
